Laboratory results: paper PMC4081097

Molecular target: T1, AbaSI-C3S (Acinetobacter baumannii SDF, UniProt B0VN39 1-321, C2S;C309S;C321S)
T1 sequence: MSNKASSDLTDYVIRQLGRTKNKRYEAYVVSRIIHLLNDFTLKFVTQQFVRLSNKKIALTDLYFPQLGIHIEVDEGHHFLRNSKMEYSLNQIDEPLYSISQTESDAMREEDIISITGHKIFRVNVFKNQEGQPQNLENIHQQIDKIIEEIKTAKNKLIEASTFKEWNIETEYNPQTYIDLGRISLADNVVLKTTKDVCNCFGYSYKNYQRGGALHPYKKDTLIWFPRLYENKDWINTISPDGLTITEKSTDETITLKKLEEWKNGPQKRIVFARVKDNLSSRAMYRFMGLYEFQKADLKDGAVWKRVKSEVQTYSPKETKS
Assay: X-ray crystallography

B1: 14+4 product DNA (dsDNA)
DNA 1: TGCTCGATACAATAGGCC
DNA 2: TATTGTATCGAGCA
modifications: 5hmC at top position 5
B1: binds.
